Results on 16 sequences are retold here after the nanobody polyreactivity screen of Harvey et al. (2022).

The data set can be described thus: yeast display, Sf9 membrane polyspecificity reagent, FACS + sequencing; frameworks hold sequencing errors. The method in brief: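 Nanobodies came from a synthetic yeast display library in Saccharomyces cerevisiae BJ5465, induced with galactose for 36–48 hours and stained for 1 hour at 4 °C with 10% biotinylated, detergent-solubilized Sf9 membrane reagent. Cells were enriched on streptavidin microbeads and then FACS-sorted, with low and high (top ~1%) gates set on anti-HA fluorescence for expression and streptavidin fluorescence for reagent binding. Each polyreactivity label reflects the gate a clone came from. Genes were amplified by colony PCR, sequenced by MiSeq 2 × 250 and filtered by CDR length.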
“QVQLEESGGGLVQAGGSLRLTCAASGSTFYGYAMGWYRQAPGKERELVAAITRSGGSTYYADSVKVRFTISRDNAKYTVYLQMNSLKPEDTAVYYCNKYIGWYGTGSDYYWGQGTQVNVSS”: the “polyreactivity (PSR sort gate)” value is “high polyreactivity”.

Consider “QVQLEESGGGLVQAGGTLRLSCAASGSIFYGYAMGWYRKATGKQRDLVAVITDGGGSTYYADSVKGRFTISRDNAKNTVYLQMNSLKPEDTAVYYCAADSWGRYYYSSYSYDYWGQGTQVTVSS”, for which the “polyreactivity (PSR sort gate)” value was “low polyreactivity”.

Consider “QVQLEESGGGLVQEGGSLRLSCAASGRIFKWNAMGLYRQAPGKERELVAAISLSGGSTYYADSVKGRFTISRDNAKNTVYLQMNSLKPEDTAVYYCNAYAYHRYGYWGQGTQVTVSS”, for which the “polyreactivity (PSR sort gate)” value was “high polyreactivity”.

In the case of “QVQLEESGGGLVQEGGSLRLSCAASGSTFVTYAMGWYRPSPGKARELVAAISQSGGSTYYADSVKGRFTISRDNAKNTVYLQMNSLKPEDSAVYYCAAEYWDIAYCFVWWIYDYWGQGTLVTVSS”, the “polyreactivity (PSR sort gate)” value is “high polyreactivity”.

On to “QVQLEESGGGLVQVGGSLRLSCAASGLTFRYYAMGWYRQAPGKERELVAAISGSGSTTYYADSVKGRFTISRDNAKNTVYLQMNSLKPEDTAVYYCNARRTGRVGGVVTHYYWGQGTQVTVSS”, for which the “polyreactivity (PSR sort gate)” value was “high polyreactivity”.

“QVQLEESGGGVVQAGGSLRLSCAASGGIFNVYVMGWYRQAPGKERELVAAITWRGGSTYYADSVKGRFTISRDNAKNTVYLQMNSLKPEDTAVYYCNADAPFQSSSDGYQVEYWGQGTQVTVSS”: the “polyreactivity (PSR sort gate)” value is “low polyreactivity”.

“QVQLEESGGGVVQAGGSLRLSCAASGRTLSHYAIGWYRQAPGKERELVAVISWSGTSTYYADSVKGRFTISRDNAKNTVYLQMNSLKPEDTAVYYCNADTYGYYLWTGAVSAGDDYWGQGTQVTVSS”: the “polyreactivity (PSR sort gate)” value was “low polyreactivity”.

As to “QVQLEESGGGVVQAGGSLSLSCAASVSTFIFNTMGWYRQATGKERELVASITGDGRTNYADSVKGRFTISRDNAKNTVYLQMNSLKPEDTAVYDCAADGYDQYPLWAPPGDYWGQGTQVTVSS”, the “polyreactivity (PSR sort gate)” value is reported as “low polyreactivity”.

Take “QVQLEESGGRLVQAGGSLRLSCAASGFIFGWNAMGWYRQAPGKERELVASIRSSGGTTYADSVKGRFTISRDNAKNTVYLEMNSLKPEDTAVYYCSKRDRYKRYDFWGLGTQVTVSS”: the “polyreactivity (PSR sort gate)” value is on record as “low polyreactivity”.

For the sequence “QVQLEESGGRLVQAGGSLRLSCAASGYTFPLYAMGWYRQAPGKERELVADINIGGASTYYADSVKGRFTISRDNAKNTVYLQMNSLKPEDTAVYYCAAEDSWYWDAWFDYWGQGTQVTVSS”, the “polyreactivity (PSR sort gate)” value is reported as “low polyreactivity”.

As for “QVQLEESGGVLVQAGGSLRLSCAASGRIFVWYAMGWYRQAPGKERELVAAISSADSTNYADSVKGRFTISRDNAKNTVYLQMNSLKPEDTAVYYCNAEGWPGNVVYGYYYWGQGTQVTVSS”, the “polyreactivity (PSR sort gate)” value is recorded as “low polyreactivity”.

Consider “QVQLEESGGVLVQAGGSLRLTCAAAGSILAYNSMGWYREAPGKERELVAAISWTGRTYYADSVKGRFTISRDNEKNTVYLQMNSLIPEDTAVYYCNARGRQRSRGSQIYDYWGQGTQVTVSS”, for which the “polyreactivity (PSR sort gate)” value is “high polyreactivity”.

Turning to “QVQLEESGRGLVQAGGSLRISCAASGRIFWGYAMGWYRQAPRKERELVARITSGGDTYYADSVKGRFTISRDNAKNTVYLQMNSLKPEDTAVYYCAAELRPGYRSSYGLIYDYWGQGTQVTVSS”, the “polyreactivity (PSR sort gate)” value is reported as “low polyreactivity”.

Regarding “QVQLEESGRGLVQAGGSLRLSCAASGFIFYRNTMGWYRQAPGKERELVAAISVSGGSTNYADSVKGRFTISRDNAKNTVYLQINSLKPEVTAVYYCAARVRESLVYGGWDDYWGQGTQVTVSS”, the “polyreactivity (PSR sort gate)” value was “high polyreactivity”.

For the sequence “QVQLEESGRGLVQAGGSLRLSCAASGSIFGVYTMGWYRPAPRKDRELVAAISASGGRTYYADSVKGRFTISRDTAKITVYLQMNSLKPEDTAVYYCAARASKGYGWYDYWGQGTQVTVSS”, the “polyreactivity (PSR sort gate)” value is given as “high polyreactivity”.

As to “QVQLEESGVGLVQAGGSLRLICAASGFTFYSYAMGWYRQAPGKERELVASISWRGGSTYYADSVKGRFTISRDNAKNTVYLQMNSLKPVDTAVYYCAAQKRGSPVYRRDYWGQGTEVTVSS”, the “polyreactivity (PSR sort gate)” value is listed as “high polyreactivity”.
